Among the data in publication PMC4661009, “Synthesis of α,β-unsaturated esters via a chemo-enzymatic chain elongation approach by combining carboxylic acid reduction and Wittig reaction” (Beilstein Journal of Organic Chemistry, 2015) are Km values, retold here.

Substrate in this series: O=C(O)c1ccccc1
The series can be described thus: steady-state kinetics of carboxylic acid reduction. Type of series: biochemical, Mycolicibacterium neoaurum. The following applies: His-tagged CAR, holo form after PPTase/CoA treatment; ATP, NADPH, Mg2+ as cofactors; assay pH and temperature for Km not in main text.

B1: Mycobacterium CAR (Mycolicibacterium neoaurum VKM Ac-1815D) (protein)
chain: MFAENLDDQQRLADLYATDPEFAAAAPDPAIADAVAAPEMRLPEIIRTVLTGYAERPALGSRAVQLVTDEATGRTRAELLGHFETITYGQLWDRVRAVTNAWSDTVRPGDRVAILGFGSVDFTVIDIALTQLGAVSVPLQTSATAAALAPIVAETEPALIASDVNHLDDAVTLALESGVATVVVFDQNPAVDDDREAIAAATARLDGQTLATLDEVIAAGAERPDVAIPAQEGDPLSLLIYTSGSTGAPKGAMYPQGKVADIWRPAINSHWDARQGHVPAIVLSFMPMSHVMGRGILYASLASGGVVNFAARADLSTLLEDLALTRPTQLNFVPRVWDMLFQDYQSRAAHGGSEADILADMRTNLLGGRYVSALTGSAPISPELKAWVERLLDLHLVEGYGSTEAGAVFVDGQISRPPVLEYKLVDVPELGYHSTDVPHPRGELLIRSEQLFPGYYKRPEVTASVFDEDGFYRTGDIVAELGPDQVAYIDRRNNVLKLSQGEFVTVSKLEAVFNTAPLVHQIYIYGNSARPYLLAVVVPTDPAATKAEIADALKAAARKADLQSYELPRDFLVETQEFTTENGLLTGIKKLAWPKLKERYGAELEQLYTDLADGQAGELQALRATGADAPVLETVGRAAVALLGAASSDIAPDVHFTDLGGDSLSALTFGNLLADIFDVEVPVSVIVSPTADLASIAAHIETQRSGSGLRPSFASVHGKDATVARAADLTLDKFIDAETLAAAGDLAGPATNVRTVLLTGATGFLGRYLALEWLERMNLVDGKVIALVRARSDAEARARLDATFDTGDPKLVAHYRELADKHLEVLAGDKGEHDLGLDRQTWQRLADTVDLIVDPAALVNHVLPYNELFGPNALGTAELIRVALTTRIKPFVYVSTIGVGAGIEPGRFVEDADIREISATRVLDDSYANGYGASKWAGEVLLREAHEQFGLPVSVFRCDMILADTSYAGQLNLPDMFTRMMLSLVATGIAPKSFNQLDAQGNRQRSHYDGLPVEFIAEAISTLGADVTDGFETYHVMNPHDDGLGLDEFVDWLVDAGHPIRRIDDYQAWFEQFGATLRTLPDRQRQASLLPLLHNYTTPGQPVNGAMAPTDVFRTAVQEAKIGPDKDIPHVSRDVIVKYVTDLQLLGLL
notes: full-length gene in pET30b(+) (NdeI/XhoI), His-tagged, E. coli BL21(DE3), tag kept; monomer, theoretical 125 kDa; holo form made with Nocardia PPTase (ABI83656.1) and CoA
B1: the Michaelis-Menten constant (Km) worked out at 1750 ± 160 µM.

One may read the Km as the concentration of substrate that gives half-maximal velocity.
